Article doi:10.1101/2024.08.29.610253 (2024)
Read-outs that look alike come from different tables or passages of the source.

T1: liprin-α2_CC2 (human, UniProt O75334 259-542)
T1 chain: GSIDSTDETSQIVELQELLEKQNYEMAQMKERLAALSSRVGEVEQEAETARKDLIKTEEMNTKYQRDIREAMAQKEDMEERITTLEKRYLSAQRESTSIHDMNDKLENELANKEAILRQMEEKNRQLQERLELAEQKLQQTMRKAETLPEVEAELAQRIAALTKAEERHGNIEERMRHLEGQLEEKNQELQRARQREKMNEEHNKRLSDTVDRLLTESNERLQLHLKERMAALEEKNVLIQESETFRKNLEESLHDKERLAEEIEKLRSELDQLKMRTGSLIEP

T2: liprin-α2_CC2N E380R (human, UniProt O75334 300-404, E380R)
T2 sequence: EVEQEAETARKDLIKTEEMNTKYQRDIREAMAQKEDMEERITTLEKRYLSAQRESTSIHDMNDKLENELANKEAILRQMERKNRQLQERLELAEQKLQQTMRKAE

T3: liprin-α2_CC2N A350S (human, UniProt O75334 300-404, A350S)
T3 sequence: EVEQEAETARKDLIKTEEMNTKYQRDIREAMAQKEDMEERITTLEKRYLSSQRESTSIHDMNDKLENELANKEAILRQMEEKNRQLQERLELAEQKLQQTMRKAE

B1: liprin-α2_CC2N (domain or fragment)
chain: EVEQEAETARKDLIKTEEMNTKYQRDIREAMAQKEDMEERITTLEKRYLSAQRESTSIHDMNDKLENELANKEAILRQMEEKNRQLQERLELAEQKLQQTMRKAE

Experiments:
Experiment in all cases: ITC
[1] = target: RIM1_C2B R1236E
[2] = target: RIM1_C2B L1245Q
[3] = target: RIM1_C2B K1240E
[4] = target: RIM1_C2B L1245Q; remark: listed apart in the source
[5] = target: RIM1_C2B R1236E; remark: listed apart in the source
[6] = target: RIM1_C2B K1240E; remark: listed apart in the source
[7] = target: B1
[8] = target: T1, liprin-α2_CC2
[9] = target: liprin-α2_CC2N R383A
[10] = target: liprin-α2_CC2N E379R
[11] = target: T2, liprin-α2_CC2N E380R
[12] = target: liprin-α2_CC2N R383A; remark: listed apart in the source
[13] = target: liprin-α2_CC2N E379R; remark: listed apart in the source
[14] = target: T3, liprin-α2_CC2N A350S
[15] = target: T2, liprin-α2_CC2N E380R; remark: listed apart in the source

| Binder | Kd [1] [µM] | Kd [2] [µM] | Kd [3] [µM] | Kd [4] [µM] | Kd [5] [µM] | Kd [6] [µM] | Kd [7] [µM] | Kd [8] [µM] | Kd [9] [µM] | Kd [10] [µM] | Kd [11] [µM] | Kd [12] [µM] | Kd [13] [µM] | Kd [14] [µM] | Kd [15] [µM] |
| --- | --- | --- | --- | --- | --- | --- | --- | --- | --- | --- | --- | --- | --- | --- | --- |
| B1 | 27 | > 100 | 25 | > 100 | 27 | 25 | – | – | – | – | – | – | – | – | – |
| RIM1_C2B (domain or fragment) GPAQLVGRQTLATPAMGDIQIGMEDKKGQLEVEVIRARSLTQKPGSKSTPAPYVKVYLLENGACIAKKKTRIARKTLDPLYQQSLVFDESPQGKVLQVIVWGDYGRMDHKCFMGVAQILLEELDLSSMVIGWYKLFPPSSLVDPTLAPLTRRASQSSLESSSGPPCIRS | – | – | – | – | – | – | 4 | 5 | 24 | 23 | 8.2 | 24 | 23 | 5.7 | 8.2 |
